Measurements as given in publication PMC2556791 (The Journal of Experimental Medicine, 2008).

How the values were obtained:
[1] = molecular target: mCMKLR1-HA on L1.2 transfectants (mouse) (UniProt P97468); experiment: radioligand binding
[2] = molecular target: mCCRL2 on freshly isolated mouse peritoneal mast cells (mouse (endogenous in peritoneal mast cells)) (UniProt O35457); experiment: flow cytometry on cells
[3] = molecular target: huCCRL2-HA on L1.2 transfectants (human); experiment: radioligand binding
[4] = molecular target: T1, mCCRL2-HA on L1.2 transfectants (mouse, UniProt O35457 1-360); experiment: radioligand binding
T1 sequence (looked up): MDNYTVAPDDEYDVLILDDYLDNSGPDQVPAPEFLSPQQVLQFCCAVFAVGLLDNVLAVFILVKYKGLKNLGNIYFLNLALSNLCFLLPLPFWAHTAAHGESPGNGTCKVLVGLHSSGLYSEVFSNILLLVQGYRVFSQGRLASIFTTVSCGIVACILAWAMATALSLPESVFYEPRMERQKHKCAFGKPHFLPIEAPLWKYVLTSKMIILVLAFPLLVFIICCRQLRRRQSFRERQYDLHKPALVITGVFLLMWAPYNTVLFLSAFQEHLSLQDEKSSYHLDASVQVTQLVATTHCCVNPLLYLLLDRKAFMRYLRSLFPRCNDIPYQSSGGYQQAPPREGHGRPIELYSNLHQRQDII

[5] = molecular target: T1, mCCRL2-HA on L1.2 transfectants; experiment: flow cytometry on cells
[6] = molecular target: huCCRL2-HA on L1.2 transfectants (human); experiment: flow cytometry on cells
[7] = molecular target: T2, mCMKLR1-HA on L1.2 transfectants (mouse, UniProt P97468 1-371); experiment: radioligand binding
T2 sequence (looked up): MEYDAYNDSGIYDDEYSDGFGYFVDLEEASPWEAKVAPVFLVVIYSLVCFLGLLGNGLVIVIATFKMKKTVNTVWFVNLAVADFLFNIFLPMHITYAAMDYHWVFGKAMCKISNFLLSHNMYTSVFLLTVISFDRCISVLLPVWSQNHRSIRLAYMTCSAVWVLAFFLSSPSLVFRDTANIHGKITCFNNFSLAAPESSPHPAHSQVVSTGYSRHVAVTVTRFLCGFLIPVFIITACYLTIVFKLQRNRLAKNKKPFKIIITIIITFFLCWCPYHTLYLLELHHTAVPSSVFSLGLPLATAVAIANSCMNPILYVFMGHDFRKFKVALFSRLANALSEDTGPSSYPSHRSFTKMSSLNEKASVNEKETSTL

An EC50 [1] of 26.3 nM was found for “C-terminal His8-tagged serum form human chemerin (NH2-ADPELTE……-COOH) (from UniProt Q99969 21-155) (ligand)” in this work.

An EC50 [2] of 21 nM, an EC50 [3] of 0.2 nM and an EC50 [1] of 3.1 nM were found for “chemerin (unlabeled; form not specified) (from UniProt Q99969 21-157) (ligand)” in this work.

B1: 125I-chemerin (residues 21–148) (ligand, human, UniProt Q99969 21-148, looked up)
chain: ELTEAQRRGLQVALEEFHKHPPVQWAFQETSVESAVDTPFPAGIFVRLEFKLQQTSCRKRDWKKPECKVRPNGRKRKCLACIKLGSEDKVLGRLVHCPIETQVLREAEEHQETQCLRVQRAGEDPHSF
modifications: 125I (radioiodinated; specific activity 97 Ci/g)
A Kd [4] of 1.6 nM was found for B1 in this work.

B2: untagged serum form human chemerin (NH2-ADPELTE…FAPH-COOH) (ligand)
chain: ADPELTEAQRRGLQVALEEFHKHPPVQWAFQETSVESAVDTPFPAGIFVRLEFKLQQTSCRKRDWKKPECKVRPNGRKRKCLACIKLGSEDKVLGRLVHCPIETQVLREAEEHQETQCLRVQRAGEDPHSFYFPGQFAPH
An EC50 [5] of 45 nM and an EC50 [6] of 7 nM were found for B2 in this work.

An EC50 [7] of 26.2 nM was found for YFPGQFAFS [bioactive 9-mer carboxyl-terminal chemerin peptide (residues 149–157, YFPGQFAFS)] in this work.
